# B1: SEQ ID NO: 8: engineered aryl sulfate-dependent NST enzyme, mutant of N-sulfotransferase domain of human NDST (protein)
# chain: MSEEKDPLWQDPCEDKRHKDIWSKEKTCDRFPKLLIIGPHGTGGHALYLFLGMHPDLSSNYPSSETFLSIQFFNGHNYHKGIDWYMEFFPIPSNTTSDFYFEHSGNYFDSEVAPRRAAALLPKAKVLTILINPADRAYRAYVWQRAHDDPVALKYTFHEVITAGSDASSKLRALQNRCLVPGWYATHIERWLSAYHANQILVLDGKLLRTEPAKVMDMVQKFLGVTNTIDYHKTLAFDPKKGFWCQLLEGGKTKCLGKSLGSKYPEMDLDSRAFLKDYYRDHNIELSKLLYKMGQTLPTWLREDLQNTR
# modifications: Amino acid sequence encoding for engineered arylsulfate-dependent N-sulfotransferase variant 4
# notes: engineered aryl sulfate-dependent NST enzyme, mutant of N-sulfotransferase domain of human NDST
# B2: SEQ ID NO: 6: engineered aryl sulfate-dependent NST enzyme, mutant of N-sulfotransferase domain of human NDST (protein)
# chain: MSEEKDPLWQDPCEDKRHKDIWSKEKTCDRFPKLLIIGPHGTGGHALYLFLGMHPDLSSNYPSSETGEEIQFFNGHNYHKGIDWYMEFFPIPSNTTSDFYFEKSANYFDSEVAPRRAAALLPKAKVLTILINPADRAYSWYQAQRAHDDPVALKYTFHEVITAGSDASSKLRALQNRCLVPGWYATHIERWLSAYHANQILVLDGKLLRTEPAKVMDMVQKFLGVTNTIDYHKTLAFDPKKGFWCQLLEGGKTKCGGKHLGRKYPEMDLDSRAFLKDYYRDHNIELSKLLYKMGQTLPTWLREDLQNTR
# modifications: Amino acid sequence encoding for engineered arylsulfate-dependent N-sulfotransferase variant 3
# notes: as for B1
# B3: SEQ ID NO: 35: mutant of N-sulfotransferase domain of pig NDST carrying the SEQ ID NO: 2 mutations (protein)
# chain: MSEEKDPLWQDPCEDKRHKDIWSKEKTCDRFPKLLIIGPQKTGAWALYHFLGLHPDLSSNYPSSETHGSIQFFNGHNYHKGIDWYMDFFPIPSNTTSDFYFEKSANYFDSDVAPRRAAALLPKAKVLTILINPADRAYSWYQHQRAHDDPAALRYTFHEVITAGPDASLKLRALQNRCLVPGWYATHLERWLGAFHANQILVLDGKLLRTEPARVMDTVQKFLGVTNTIDYHKTLAFDPKKGFWCQLLEGGKTKCLGRSHGRKYPDMDPDSRAFLRDYYRDHNIELSKLLYKMGQTLPTWLREELQNTR
# modifications: Amino acid sequence encoding for engineered arylsulfate-dependent N-sulfotransferase variant 9
# B4: SEQ ID NO: 40: mutant of N-sulfotransferase domain of pig NDST carrying the SEQ ID NO: 12 mutations (protein)
# chain: MSEEKDPLWQDPCEDKRHKDIWSKEKTCDRFPKLLIIGPAKTGAWLLHHFLGLHPDLSSNYPSSETHSSIQFFNGHNYHKGIDWYMDFFPIPSNTTSDFYFETSANYFDSDVAPRRAAALLPKAKVLTILINPADRAYSWYQHQRAHDDPAALRYTFHEVITAGPDASLKLRALQNRCLVPGWYATHLERWLGAFHANQILVLDGKLLRTEPARVMDTVQKFLGVTNTIDYHKTLAFDPKKGFWCQLLEGGKTKCAHRGLGRKYPDMDPDSRAFLRDYYRDHNIELSKLLYKMGQTLPTWLREELQNTR
# modifications: Amino acid sequence encoding for engineered arylsulfate-dependent N-sulfotransferase variant 14
# B5: SEQ ID NO: 36: mutant of N-sulfotransferase domain of pig NDST carrying the SEQ ID NO: 4 mutations (protein)
# chain: MSEEKDPLWQDPCEDKRHKDIWSKEKTCDRFPKLLIIGPSKTGAFLLTHFLGLHPDLSSNYPSSETGHSIQFFNGHNYHKGIDWYMDFFPIPSNTTSDFYFETSSNYFDSDVAPRRAAALLPKAKVLTILINPADRAYSWYQHQRAHDDPAALRYTFHEVITAGPDASLKLRALQNRCLVPGWYATHLERWLGAFHANQILVLDGKLLRTEPARVMDTVQKFLGVTNTIDYHKTLAFDPKKGFWCQLLEGGKTKCHGRRWGRKYPDMDPDSRAFLRDYYRDHNIELSKLLYKMGQTLPTWLREELQNTR
# modifications: Amino acid sequence encoding for engineered arylsulfate-dependent N-sulfotransferase variant 10
# B6: SEQ ID NO: 37: mutant of N-sulfotransferase domain of pig NDST carrying the SEQ ID NO: 6 mutations (protein)
# chain: MSEEKDPLWQDPCEDKRHKDIWSKEKTCDRFPKLLIIGPHHTGGHALYLFLGLHPDLSSNYPSSETGEEIQFFNGHNYHKGIDWYMDFFPIPSNTTSDFYFEKSANYFDSDVAPRRAAALLPKAKVLTILINPADRAYSWYQAQRAHDDPAALRYTFHEVITAGPDASLKLRALQNRCLVPGWYATHLERWLGAFHANQILVLDGKLLRTEPARVMDTVQKFLGVTNTIDYHKTLAFDPKKGFWCQLLEGGKTKCGGRHLGRKYPDMDPDSRAFLRDYYRDHNIELSKLLYKMGQTLPTWLREELQNTR
# modifications: Amino acid sequence encoding for engineered arylsulfate-dependent N-sulfotransferase variant 11
# B7: SEQ ID NO: 38: mutant of N-sulfotransferase domain of pig NDST carrying the SEQ ID NO: 8 mutations (protein)
# chain: MSEEKDPLWQDPCEDKRHKDIWSKEKTCDRFPKLLIIGPHGTGGHALYLFLGLHPDLSSNYPSSETFLSIQFFNGHNYHKGIDWYMDFFPIPSNTTSDFYFEHSGNYFDSDVAPRRAAALLPKAKVLTILINPADRAYRAYVWQRAHDDPAALRYTFHEVITAGPDASLKLRALQNRCLVPGWYATHLERWLGAFHANQILVLDGKLLRTEPARVMDTVQKFLGVTNTIDYHKTLAFDPKKGFWCQLLEGGKTKCLGRSLGSKYPDMDPDSRAFLRDYYRDHNIELSKLLYKMGQTLPTWLREELQNTR
# modifications: Amino acid sequence encoding for engineered arylsulfate-dependent N-sulfotransferase variant 12
# B8: SEQ ID NO: 39: mutant of N-sulfotransferase domain of pig NDST carrying the SEQ ID NO: 10 mutations (protein)
# chain: MSEEKDPLWQDPCEDKRHKDIWSKEKTCDRFPKLLIIGPHKTGVHALYLFLGLHPDLSSNYPSSETGNHIGFFGGHNYHKGIDWYMDFFPIPSNTTSDFYFEKSAWYFDSDVAPRRAAALLPKAKVLTILINPADRAYSWYQHQRAHDDPAALRYTFHEVITAGPDASLKLRALQNRCLVPGWYATHLERWLGAFHANQILVLDGKLLRTEPARVMDTVQKFLGVTNTIDYHKTLAFDPKKGFWCQLLEGGKTKCLGRSVGRKYPDMDPDSRAFLRDYYRDHNIELSKLLYKMGQTLPTWLREELQNTR
# modifications: Amino acid sequence encoding for engineered arylsulfate-dependent N-sulfotransferase variant 13
# Assay: NST activity: N-sulfated products detected by SAX-HPLC after lyase digestion
# Format: biochemical
# Conditions: PNS or NCS as sulfo donor, N-deacetylated heparosan acceptor, 37° C. overnight
# Protocol: A study was conducted in accordance with embodiments of the present disclosure to confirm NST activity of enzymes comprising the amino acid sequence of SEQ ID NO: 2, SEQ ID NO: 4, SEQ ID NO: 6, SEQ ID NO: 8, SEQ ID NO: 10, or SEQ ID NO: 12 by detecting the presence of N-sulfated polysaccharide products formed as a result of their sulfotransfer reaction, using mass spectrometry (MS). Each engineered enzyme was purified according to the procedure of Example 1. Sulfotransferase activity was monitored in 100 μL reactions containing 50 μM of enzyme. To each purified protein solution, 20 mg of an aryl sulfate compound (either PNS or NCS) was dissolved in 2 mL of reaction buffer (50 mM IVIES pH 7.0, 2 mM CaCl2)), added to the protein solution, and incubated at 37° C. for 10 min. 2.5 mL of 2 mg/mL solution of N-deacetylated heparosan was added to protein/donor solution and incubated overnight at 37° C. The N-deacetylated heparosan was synthesized according to the protocol described in Balagurunathan, K. et al (eds.) (2015), Glycosaminoglycans: Chemistry and Biology, Methods in Molecular Biology, vol. 1229, DOI 10.1007/978-1-4939-1714-3_2, ©Springer Science+Business Media, New York, pp. 11-19 (section 3.1). To purify the N-sulfated product, the incubated reaction mixture was centrifuged the following day at 5,000×g for 10 min. The filter was washed once with 2 mL water, and centrifuged again. The filtrate was added to a 1K MWCO Dialysis membrane, dialyzed for 2 days in Milli-Q water, with water changes at 1 h, 2 h, 8 h, 16 h, 32 h, and then lyophilized.
# The lyophilized N-sulfated products from each reaction were subsequently digested with a mixture of three carbon-oxygen lyases comprising the amino acid sequences of SEQ ID NO: 30, SEQ ID NO: 31, and SEQ ID NO: 32, which catalyze the β-eliminative cleavage of heparosan-based polysaccharides. Such lyases are available from New England Biolabs, among other chemical and biological commercial entities. 1 μL of each lyase was incubated with 50 μg of the lyophilized sulfated polysaccharide product and the provided digestion buffer, and incubated over 24 hours according to the packaged instructions provided by New England Biolabs with each lyase. After digestion, the lyase enzymes were inactivated by heating to 100° C. for 5 minutes. Samples were centrifuged at 14,000 rpm for 30 minutes before introduction to a strong anion exchange, high performance liquid chromatography (SAX) analysis. SAX analysis was performed on a Dionex Ultimate 3000 LC system interface. Separation was carried out on a 4.6×250 mm Waters Spherisorb analytical column with 5.0 μm particle size at 45° C. Mobile phase solution A was 2.5 mM sodium phosphate, pH 3.5, while mobile phase solution B was 2.5 mM sodium phosphate, pH 3.5, and 1.2 M Sodium perchlorate. After each sample was loaded onto the column, mobile phase solutions were applied to the column at a ratio of 98% mobile phase solution A and 2% mobile phase solution B for five minutes at a flow rate of 1.4 mL/min. After five minutes, a linear gradient of increasing mobile phase solution B was applied until the ratio of mobile phase solution A to mobile phase solution B was 50:50.
row,Molecule,NST sulfotransferase activity with aryl sulfate compounds
1,B1,activity with both aryl sulfate compounds
2,B2,activity with both aryl sulfate compounds

# Same assay, conditions: procedures of Example 2; expected
row,Molecule,NST activity: N-sulfated products by SAX
1,B3,confirm the presence of N-sulfated polysaccharide products
2,B4,confirm the presence of N-sulfated polysaccharide products
3,B5,confirm the presence of N-sulfated polysaccharide products
4,B6,confirm the presence of N-sulfated polysaccharide products
5,B7,confirm the presence of N-sulfated polysaccharide products
6,B8,confirm the presence of N-sulfated polysaccharide products
